What was measured:
[1] = system: AncSZ; experiment: phosphorylation enrichment, bacterial display (enrichment ratio); higher = better substrate or ligand; peptides without Tyr show the background
[2] = biological target: EPHB1 (UniProt P54762); experiment: as above
[3] = biological target: EPHB2 (UniProt P29323); experiment: as above
[4] = biological target: FGFR1 (UniProt P11362); experiment: as above
[5] = biological target: FGFR3 (UniProt P22607); experiment: as above
[6] = system: Fer (mouse); experiment: as above
[7] = biological target: Fes (UniProt P07332); experiment: as above
Sequence of Fes (P07332 whole entry, looked up): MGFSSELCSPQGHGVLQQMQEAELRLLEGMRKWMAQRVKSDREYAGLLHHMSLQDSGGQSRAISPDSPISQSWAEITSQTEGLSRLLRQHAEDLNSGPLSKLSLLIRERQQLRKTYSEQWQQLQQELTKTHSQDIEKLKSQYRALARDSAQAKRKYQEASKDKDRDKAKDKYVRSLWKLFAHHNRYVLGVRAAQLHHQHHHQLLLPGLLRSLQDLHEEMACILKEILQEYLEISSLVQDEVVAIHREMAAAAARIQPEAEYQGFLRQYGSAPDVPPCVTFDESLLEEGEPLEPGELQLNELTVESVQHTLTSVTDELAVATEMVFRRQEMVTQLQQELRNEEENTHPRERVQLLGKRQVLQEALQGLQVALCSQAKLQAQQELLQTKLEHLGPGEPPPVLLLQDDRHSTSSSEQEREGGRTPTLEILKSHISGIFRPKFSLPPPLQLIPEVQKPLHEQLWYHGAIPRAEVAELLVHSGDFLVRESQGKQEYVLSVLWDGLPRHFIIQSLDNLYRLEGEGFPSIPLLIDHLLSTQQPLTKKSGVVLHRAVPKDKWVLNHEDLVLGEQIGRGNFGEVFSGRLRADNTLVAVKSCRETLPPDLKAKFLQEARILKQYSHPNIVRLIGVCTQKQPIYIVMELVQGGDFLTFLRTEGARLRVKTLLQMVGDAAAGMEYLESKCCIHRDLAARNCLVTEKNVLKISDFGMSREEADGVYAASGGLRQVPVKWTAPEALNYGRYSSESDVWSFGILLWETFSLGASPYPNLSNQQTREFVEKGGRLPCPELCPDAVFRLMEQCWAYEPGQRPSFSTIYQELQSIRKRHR

[8] = biological target: Fyn (UniProt P06241); experiment: as above
[9] = biological target: Hck (UniProt P08631); experiment: as above
Sequence of Hck (P08631 whole entry, looked up): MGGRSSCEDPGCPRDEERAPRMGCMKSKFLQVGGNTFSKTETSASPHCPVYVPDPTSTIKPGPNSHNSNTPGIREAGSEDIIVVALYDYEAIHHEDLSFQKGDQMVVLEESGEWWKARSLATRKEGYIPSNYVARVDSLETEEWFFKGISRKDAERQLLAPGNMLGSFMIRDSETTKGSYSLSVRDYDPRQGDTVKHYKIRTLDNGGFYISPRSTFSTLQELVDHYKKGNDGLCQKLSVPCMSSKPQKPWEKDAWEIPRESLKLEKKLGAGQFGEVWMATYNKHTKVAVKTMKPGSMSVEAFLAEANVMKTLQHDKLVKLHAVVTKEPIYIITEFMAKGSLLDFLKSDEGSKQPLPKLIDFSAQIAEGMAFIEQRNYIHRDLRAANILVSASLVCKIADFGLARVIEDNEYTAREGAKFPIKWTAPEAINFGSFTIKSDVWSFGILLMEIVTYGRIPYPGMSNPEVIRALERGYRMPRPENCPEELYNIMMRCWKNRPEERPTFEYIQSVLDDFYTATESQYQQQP

[10] = biological target: Jak2 (UniProt O60674); experiment: as above
Sequence of Jak2 (O60674 whole entry, looked up): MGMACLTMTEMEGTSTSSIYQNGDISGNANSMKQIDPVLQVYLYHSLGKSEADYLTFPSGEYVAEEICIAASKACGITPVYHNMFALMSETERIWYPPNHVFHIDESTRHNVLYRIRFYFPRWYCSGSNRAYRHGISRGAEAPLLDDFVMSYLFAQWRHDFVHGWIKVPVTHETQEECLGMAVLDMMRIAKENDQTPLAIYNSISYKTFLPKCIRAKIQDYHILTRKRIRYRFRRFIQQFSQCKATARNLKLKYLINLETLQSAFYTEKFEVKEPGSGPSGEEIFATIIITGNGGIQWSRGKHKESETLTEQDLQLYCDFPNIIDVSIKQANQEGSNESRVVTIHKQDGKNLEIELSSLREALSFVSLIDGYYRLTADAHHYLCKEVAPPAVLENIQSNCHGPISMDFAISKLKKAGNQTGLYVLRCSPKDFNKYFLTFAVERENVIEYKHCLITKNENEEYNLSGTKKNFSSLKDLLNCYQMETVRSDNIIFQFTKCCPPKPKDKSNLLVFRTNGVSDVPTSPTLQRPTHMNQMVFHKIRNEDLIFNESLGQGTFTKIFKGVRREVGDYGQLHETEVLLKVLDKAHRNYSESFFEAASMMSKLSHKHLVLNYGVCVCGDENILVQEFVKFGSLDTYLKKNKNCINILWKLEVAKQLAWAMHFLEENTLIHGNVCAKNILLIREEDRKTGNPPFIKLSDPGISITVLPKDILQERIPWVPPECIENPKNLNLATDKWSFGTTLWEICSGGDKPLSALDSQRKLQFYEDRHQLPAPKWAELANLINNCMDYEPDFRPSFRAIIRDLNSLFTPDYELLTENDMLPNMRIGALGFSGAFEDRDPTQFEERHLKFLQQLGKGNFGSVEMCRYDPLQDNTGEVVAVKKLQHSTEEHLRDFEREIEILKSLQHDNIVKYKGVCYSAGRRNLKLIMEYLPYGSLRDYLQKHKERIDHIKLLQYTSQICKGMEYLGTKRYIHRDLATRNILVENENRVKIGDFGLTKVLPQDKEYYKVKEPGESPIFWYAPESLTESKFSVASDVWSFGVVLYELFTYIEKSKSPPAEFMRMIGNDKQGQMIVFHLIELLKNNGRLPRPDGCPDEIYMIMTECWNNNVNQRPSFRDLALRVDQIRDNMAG

[11] = biological target: MERTK (UniProt Q12866); experiment: as above
Sequence of MERTK (Q12866 whole entry, looked up): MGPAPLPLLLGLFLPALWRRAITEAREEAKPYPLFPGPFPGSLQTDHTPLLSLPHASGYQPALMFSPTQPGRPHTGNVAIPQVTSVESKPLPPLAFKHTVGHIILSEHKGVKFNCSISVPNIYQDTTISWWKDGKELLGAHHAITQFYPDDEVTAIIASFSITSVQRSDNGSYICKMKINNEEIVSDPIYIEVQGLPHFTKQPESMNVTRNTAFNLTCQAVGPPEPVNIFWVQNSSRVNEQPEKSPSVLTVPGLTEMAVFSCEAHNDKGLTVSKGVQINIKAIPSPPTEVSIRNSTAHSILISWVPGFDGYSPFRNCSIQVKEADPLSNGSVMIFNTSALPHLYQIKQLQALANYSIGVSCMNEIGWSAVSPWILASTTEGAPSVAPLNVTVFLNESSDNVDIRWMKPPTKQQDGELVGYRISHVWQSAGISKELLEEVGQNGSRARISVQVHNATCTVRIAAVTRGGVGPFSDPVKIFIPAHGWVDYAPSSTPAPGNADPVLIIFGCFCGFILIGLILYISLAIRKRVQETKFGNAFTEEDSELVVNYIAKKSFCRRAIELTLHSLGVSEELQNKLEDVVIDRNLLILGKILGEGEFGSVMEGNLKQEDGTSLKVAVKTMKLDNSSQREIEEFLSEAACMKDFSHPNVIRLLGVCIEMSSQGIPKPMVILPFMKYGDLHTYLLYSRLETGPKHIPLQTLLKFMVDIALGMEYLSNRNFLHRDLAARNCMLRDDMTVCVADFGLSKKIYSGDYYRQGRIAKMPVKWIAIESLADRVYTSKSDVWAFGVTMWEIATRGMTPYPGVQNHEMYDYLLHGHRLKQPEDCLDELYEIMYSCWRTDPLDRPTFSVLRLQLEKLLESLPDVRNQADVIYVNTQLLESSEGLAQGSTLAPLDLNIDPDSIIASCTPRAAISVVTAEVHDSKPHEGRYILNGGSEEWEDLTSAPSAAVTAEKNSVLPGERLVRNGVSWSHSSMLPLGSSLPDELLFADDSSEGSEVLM

[12] = system: c-Abl (mouse); experiment: as above
[13] = system: c-Src; experiment: as above
[14] = biological target: Grb2 SH2 (UniProt P62993); experiment: SH2 binding enrichment of the phosphorylated peptide, bacterial display (enrichment ratio); higher = better substrate or ligand; peptides without Tyr show the background
Sequence of Grb2 SH2 (P62993 whole entry, looked up): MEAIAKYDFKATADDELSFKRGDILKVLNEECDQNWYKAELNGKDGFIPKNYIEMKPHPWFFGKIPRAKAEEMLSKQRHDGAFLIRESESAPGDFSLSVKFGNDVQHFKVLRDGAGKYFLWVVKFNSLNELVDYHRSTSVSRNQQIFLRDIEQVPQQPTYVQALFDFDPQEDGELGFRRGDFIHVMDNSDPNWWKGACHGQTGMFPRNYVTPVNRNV

[15] = biological target: SHP2-C SH2; experiment: as above
[16] = biological target: c-Src SH2; experiment: as above
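For SH2 binding enrichment of the phosphorylated peptide, bacterial display in this document: peptide library displayed on the E. coli surface as eCPX fusions, selected cells deep-sequenced, score is each peptide's frequency after selection divided by its frequency in the input.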
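For phosphorylation enrichment, bacterial display in this document: 11-residue human phosphosite peptides and single-mutation variants displayed on the E. coli surface, counted by deep sequencing, each peptide's frequency after selection divided by its frequency in the unselected input library; frequency after pTyr selection over input frequency; kinase dosed for 20-30% of maximal phosphorylation in three min.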

Sequence of EPHB1 (P54762 whole entry, looked up): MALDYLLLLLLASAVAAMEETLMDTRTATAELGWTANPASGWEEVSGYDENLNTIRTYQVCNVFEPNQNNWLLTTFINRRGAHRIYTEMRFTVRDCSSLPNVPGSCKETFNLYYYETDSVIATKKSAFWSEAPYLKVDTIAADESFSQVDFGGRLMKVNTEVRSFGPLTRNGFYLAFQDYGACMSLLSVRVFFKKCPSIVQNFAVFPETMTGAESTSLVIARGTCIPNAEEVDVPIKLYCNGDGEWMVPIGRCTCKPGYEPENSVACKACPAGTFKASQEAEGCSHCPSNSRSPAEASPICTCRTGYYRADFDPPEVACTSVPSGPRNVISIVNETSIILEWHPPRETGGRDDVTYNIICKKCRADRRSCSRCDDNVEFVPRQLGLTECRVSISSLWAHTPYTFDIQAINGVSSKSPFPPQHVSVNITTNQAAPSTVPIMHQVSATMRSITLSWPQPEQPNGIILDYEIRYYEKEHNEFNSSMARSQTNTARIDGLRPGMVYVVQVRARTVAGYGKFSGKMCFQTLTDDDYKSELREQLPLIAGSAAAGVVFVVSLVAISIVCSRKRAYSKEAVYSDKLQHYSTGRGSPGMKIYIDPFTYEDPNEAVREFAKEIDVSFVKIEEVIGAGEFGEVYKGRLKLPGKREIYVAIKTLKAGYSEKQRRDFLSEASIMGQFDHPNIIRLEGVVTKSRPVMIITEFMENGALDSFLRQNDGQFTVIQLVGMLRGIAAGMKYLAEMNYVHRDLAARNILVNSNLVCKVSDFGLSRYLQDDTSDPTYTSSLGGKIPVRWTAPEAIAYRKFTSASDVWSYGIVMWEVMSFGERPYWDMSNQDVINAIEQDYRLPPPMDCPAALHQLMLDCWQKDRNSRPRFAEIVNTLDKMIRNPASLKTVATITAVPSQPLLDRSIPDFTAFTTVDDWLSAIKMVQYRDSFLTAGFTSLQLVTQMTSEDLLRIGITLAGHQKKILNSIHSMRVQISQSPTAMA

Sequence | phosphorylation enrichment [1] | phosphorylation enrichment [2] | phosphorylation enrichment [3] | phosphorylation enrichment [4] | phosphorylation enrichment [5] | phosphorylation enrichment [6] | phosphorylation enrichment [7] | phosphorylation enrichment [8] | phosphorylation enrichment [9] | phosphorylation enrichment [10] | phosphorylation enrichment [11] | phosphorylation enrichment [12] | phosphorylation enrichment [13] | SH2 binding enrichment [14] | SH2 binding enrichment [15] | SH2 binding enrichment [16]
REAAAYPHGRL [AGXT_Y297_L298P] | 0.516 | 0.254 | 0.442 | 0.25 | 0.41 | 0.192 | 0.46 | 0.274 | 0.404 | 0.704 | 0.32 | 0.415 | 0.329 | 0.989 | 0.739 | 0.55
NKVQFYIPDMN [NCR1_Y84_K82Q] | 0.801 | 0.501 | 0.533 | 0.579 | 0.711 | 0.447 | 0.984 | 0.411 | 0.532 | 1.01 | 0.483 | 0.744 | 0.431 | 0.976 | 0.888 | 0.464
CTTIHYHFMCN [TP53_Y234_N235H_YF] | 1.1 | 0.549 | 0.637 | 0.599 | 0.729 | 0.632 | 1.06 | 0.542 | 0.48 | 0.902 | 0.441 | 0.785 | 0.488 | 1.65 | 2.26 | 1.67
DFAIVYGTIIL [GPR179_Y460_G455D] | 1.52 | 0.732 | 0.777 | 0.565 | 1.1 | 0.727 | 1.51 | 0.692 | 0.665 | 1.16 | 0.402 | 0.846 | 0.483 | 0.591 | 0.584 | 0.343
NLDRFYQQVTK [SEC16A_Y1041] | 0.734 | 0.516 | 0.531 | 0.45 | 0.574 | 0.621 | 0.766 | 0.43 | 0.599 | 0.639 | 0.58 | 0.587 | 0.498 | 0.862 | 0.628 | 2.6
LYVDVYGPSVP [NUBPL_Y109_D105Y] | 1.48 | 3.63 | 1.09 | 2.8 | 2.02 | 2.21 | 1.32 | 2.02 | 2.85 | 0.977 | 2.27 | 0.902 | 2.15 | 0.705 | 0.695 | 0.578
LLARLYRGQAL [FGFR4_Y390_G388R] | 0.9 | 0.713 | 0.477 | 0.529 | 0.592 | 0.507 | 0.887 | 0.795 | 0.519 | 0.823 | 0.442 | 0.937 | 0.489 | 0.827 | 0.512 | 0.461
RIPFRYPKEFQ [IDS_Y234_H229R] | 0.946 | 0.571 | 0.646 | 0.78 | 1.07 | 0.627 | 1.14 | 0.56 | 1.07 | 1.48 | 0.637 | 0.998 | 1.1 | 0.447 | 0.531 | 0.414
DCVRMYELVHR [GLE1_Y135_G130D] | 1.21 | 7.46 | 3.53 | 0.594 | 0.831 | 7.12 | 1.31 | 0.754 | 2.57 | 1.09 | 3.03 | 1.03 | 1.3 | 0.925 | 0.746 | 2.56
CNNFICGGCRG [SPINT2_Y163_Y163C] | 0.963 | 0.466 | 0.515 | 0.5 | 0.644 | 0.443 | 0.902 | 0.519 | 0.504 | 0.87 | 0.488 | 0.697 | 0.415 | 0.968 | 0.757 | 0.6
KGSLPYNLILD [PKD1L2_Y406] | 0.695 | 0.468 | 0.418 | 0.552 | 0.616 | 0.488 | 0.713 | 0.438 | 0.44 | 0.687 | 0.421 | 0.743 | 0.542 | 0.75 | 0.71 | 3.69
ATDLAYYLVRE [ASL_Y375_K380E] | 1.21 | 0.675 | 0.476 | 8.49 | 6.9 | 0.43 | 0.909 | 0.929 | 1.01 | 2.38 | 1.23 | 0.527 | 1.46 | 1.08 | 3.3 | 1.58
GTPVMYTYDEY [COL10A1_Y623] | 1.26 | 0.708 | 0.978 | 0.743 | 0.893 | 0.575 | 1.09 | 1.76 | 1.01 | 1.04 | 0.804 | 0.68 | 2.42 | 0.954 | 0.843 | 2.67
RDSQIYAVDFE [MRPS34_Y34_L33I_YF] | 1.66 | 1.08 | 1.17 | 0.664 | 0.656 | 0.717 | 1.22 | 6.32 | 2.83 | 1.15 | 5.64 | 0.959 | 7.72 | 0.88 | 0.806 | 0.688
TTANRYLKVSD [MYOM2_Y871] | 0.546 | 0.38 | 0.432 | 0.453 | 0.41 | 0.484 | 0.641 | 0.404 | 0.607 | 0.492 | 0.409 | 0.526 | 0.486 | 1.2 | 0.731 | 0.643
NGSFRYVIISQ [LRP1B_Y1988] | 1.12 | 0.599 | 0.581 | 0.603 | 0.71 | 0.513 | 1.25 | 0.528 | 0.657 | 0.958 | 0.448 | 0.727 | 0.422 | 1.17 | 5.12 | 2.17
MDDKEYFSVHN [MET_Y1234_Y1230D_YF] | 1.43 | 0.492 | 0.587 | 0.743 | 0.919 | 0.434 | 1.03 | 0.411 | 0.452 | 1.02 | 0.447 | 0.757 | 0.435 | 0.808 | 0.443 | 0.442
LTQRTYMLENA [GPAA1_Y49_S51L] | 0.843 | 0.783 | 0.541 | 0.866 | 0.929 | 0.468 | 1.01 | 0.858 | 0.547 | 0.64 | 0.536 | 0.623 | 0.479 | 0.988 | 1.06 | 0.747
KLVQLYDVCTK [BTK_Y461_G462D] | 0.994 | 12.1 | 11.7 | 0.58 | 0.742 | 2.56 | 1.03 | 1.37 | 4.92 | 0.79 | 7.27 | 1.25 | 1.56 | 0.984 | 0.865 | 0.881
ERPIRYLNHQL [CEP152_Y268_Q265P] | 0.504 | 0.421 | 0.409 | 0.383 | 0.424 | 0.417 | 0.591 | 0.457 | 0.393 | 0.476 | 0.497 | 0.552 | 0.46 | 1.18 | 0.627 | 0.488
GEPLSHTRFSL [TFRC_Y20_Y20H] | 0.599 | 0.449 | 0.36 | 0.424 | 0.435 | 0.448 | 0.828 | 0.398 | 0.478 | 0.742 | 0.424 | 0.637 | 0.456 | 0.866 | 0.641 | 0.487
METKGYHSLPE [NR3C2_Y6] | 0.696 | 0.48 | 0.367 | 0.434 | 0.563 | 0.399 | 1.01 | 0.287 | 0.377 | 0.804 | 0.515 | 0.704 | 0.446 | 0.786 | 0.475 | 0.769
LARDMDDKEYY [MET_Y1230_Y1230D] | 1.87 | 0.828 | 1.13 | 0.867 | 1.19 | 0.643 | 1.64 | 0.691 | 0.723 | 1.37 | 0.489 | 1.2 | 0.531 | 0.742 | 0.716 | 0.759
RRAKGYPIDLF [ITGB2_Y125_YF] | 4.21 | 0.566 | 0.605 | 1.06 | 0.677 | 1.08 | 0.993 | 0.563 | 0.57 | 1.64 | 0.878 | 0.771 | 1.25 | 0.573 | 0.687 | 0.427
TTIVSYRASQP [MKI67_Y1737_K1734I] | 0.591 | 0.454 | 0.305 | 0.441 | 0.477 | 0.457 | 0.663 | 0.481 | 0.481 | 0.6 | 0.438 | 0.654 | 0.539 | 0.688 | 0.74 | 0.532
TEAGDYKLCFD [TMED1_Y103] | 1.38 | 0.773 | 0.65 | 0.653 | 1.02 | 0.619 | 1.35 | 0.598 | 0.564 | 1.27 | 0.496 | 0.888 | 0.54 | 0.778 | 0.636 | 0.423
QHNPEYVQQAT [LRRC7_Y1058_S1063T] | 0.612 | 0.425 | 0.455 | 0.505 | 0.553 | 0.461 | 0.799 | 0.422 | 0.491 | 0.985 | 0.238 | 0.517 | 0.284 | 0.838 | 0.617 | 0.429
ADRLEYSRTGL [MMUT_Y287_G284R] | 0.66 | 0.309 | 0.722 | 0.764 | 0.651 | 0.338 | 0.599 | 0.408 | 0.346 | 1.25 | 0.728 | 0.498 | 0.459 | 0.859 | 1.14 | 0.517
MSRDVYSTDCF [NTRK2_Y702_Y706C_YF] | 1 | 0.754 | 0.675 | 0.64 | 0.803 | 0.516 | 1.2 | 2.71 | 1.14 | 0.855 | 3.02 | 0.874 | 2.4 | 0.894 | 0.683 | 0.757
